{"source": "paper doi:10.1101/2025.06.13.659497", "biological_target": "biotinylated recombinant bovine serum albumin with N-terminal Avi tag (rBSA-Bt) (Bos taurus)", "assay": "SPR", "data": [{"substance": "streptavidin (from UniProt P22629 25-183) (natural protein)", "values": [{"measurement": "surface density", "value": 28, "unit": "ng/cm^2"}]}]}
